Key:
hGPRC5D [1] = target: hGPRC5D (UniProt Q9NZD1); experiment: flow cytometry on RPMI-8226 cells; negative control (EC50 '/': curve could not be fitted)
hGPRC5D [2] = target: hGPRC5D (UniProt Q9NZD1); experiment: flow cytometry on NCI-H929 cells; negative control (EC50 '/': curve could not be fitted)
hGPRC5D [3] = target: hGPRC5D (UniProt Q9NZD1); experiment: flow cytometry on MM.1S cells; negative control (EC50 '/': curve could not be fitted)

Chain of hGPRC5D (Q9NZD1 whole entry): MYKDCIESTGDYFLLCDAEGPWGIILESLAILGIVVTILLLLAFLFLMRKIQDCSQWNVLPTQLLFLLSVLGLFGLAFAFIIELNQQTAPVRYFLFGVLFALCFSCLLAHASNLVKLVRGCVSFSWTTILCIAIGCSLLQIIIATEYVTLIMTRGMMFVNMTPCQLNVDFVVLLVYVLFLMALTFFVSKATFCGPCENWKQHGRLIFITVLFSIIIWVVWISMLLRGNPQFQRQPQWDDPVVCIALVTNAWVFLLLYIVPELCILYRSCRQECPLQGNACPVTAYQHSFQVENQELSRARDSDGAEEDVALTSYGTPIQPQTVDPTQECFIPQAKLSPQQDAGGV

Top(MFI) (hGPRC5D [1]): 3860 | Top(MFI) (hGPRC5D [2]): 4180 | Top(MFI) (hGPRC5D [3]): 6770
Substance: hIgG1 monoclonal antibody (Biointron, Cat. No. B117901)

From patent publication US20260226168A1
